# Test results taken from publication PMC11473951.
# pKd: −log10 of the molar value.
# What was measured:
# Test in all cases: SPR
# [1] = molecular target: human monoclonal antibody R5.016 (human)
# [2] = molecular target: human monoclonal antibody R5.034 (human)
# [3] = molecular target: monoclonal antibody 9AD4 (mouse)
# Sequence of monoclonal antibody 9AD4 (mouse) (light, as listed by the source, chain 2 of 2, other chains not shown): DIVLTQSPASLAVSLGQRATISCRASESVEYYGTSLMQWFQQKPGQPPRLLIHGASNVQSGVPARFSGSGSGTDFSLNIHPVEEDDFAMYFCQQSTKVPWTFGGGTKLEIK
# Sequence of human monoclonal antibody R5.016 (human) (heavy, as listed by the source, chain 1 of 2): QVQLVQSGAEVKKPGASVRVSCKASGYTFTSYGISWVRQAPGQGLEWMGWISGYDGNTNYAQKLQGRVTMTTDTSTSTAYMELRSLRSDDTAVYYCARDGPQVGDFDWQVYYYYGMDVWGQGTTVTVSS
# Sequence of human monoclonal antibody R5.016 (human) (light, as listed by the source, chain 2 of 2): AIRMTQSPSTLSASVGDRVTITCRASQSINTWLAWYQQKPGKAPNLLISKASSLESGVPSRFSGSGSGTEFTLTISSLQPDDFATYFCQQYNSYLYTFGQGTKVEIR
# Sequence of human monoclonal antibody R5.034 (human) (heavy, as listed by the source, chain 1 of 2): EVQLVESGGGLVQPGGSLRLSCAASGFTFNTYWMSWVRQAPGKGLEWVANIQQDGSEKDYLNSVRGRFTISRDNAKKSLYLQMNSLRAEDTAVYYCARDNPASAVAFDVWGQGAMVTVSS
# Sequence of human monoclonal antibody R5.034 (human) (light, as listed by the source, chain 2 of 2): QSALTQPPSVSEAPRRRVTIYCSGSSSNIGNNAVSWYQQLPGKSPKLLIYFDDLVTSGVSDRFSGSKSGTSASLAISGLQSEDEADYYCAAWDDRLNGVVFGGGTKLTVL
substance,measurement,setting,value
PfRH5 (from UniProt Q8IFM5 25-526) (natural protein),pKd,[1],8.62
same,pKd,[2],10.03
same,pKd,[3],8.80
